Experimental data taken from patent US20240141061A1, “NOVEL ANTIBODY AGAINST CD55 AND USE THEREOF” (SG MEDICAL INC, priority 2021, published 2024).
Substitutions are numbered along the chain they refer to. Numbers in names are those of the source. Entries after “also recorded” stand apart in the source; their conditions may differ.

Legend:
K562 cells = experiment: Apoptosis by FACS in K562 cells; format: cell-based; details: 2 μM imatinib alone, 24 hours
Method: (§1) Immediately thereafter, the cells were treated with 2 μM imatinib or with 2 μM imatinib and 10 μg/mL 4-1H or EP-10H diluted with 500 μL of RPMI, and then cultured under the condition of 37° C. and 5% CO2 for 24 hours. Then, apoptotic cells were analyzed with the FACS analysis equipment Attune N×T using 7-AAD and an FITC annexin V apoptosis detection kit (FIG. 6b).

K562-IR cells = experiment: Apoptosis by FACS in imatinib-resistant K562-IR cells; format: cell-based; details: 24 hours
Method: as §1

[1] = test system: Burkitt lymphoma BJAB cells; experiment: CDC / apoptosis by FACS (annexin V/7-AAD) in BJAB cells with complement human serum; format: cell-based; details: 50% complement human serum, 1 hour
Text: BJAB cells have complement resistance and this is due to the expression of CD55 (Golay, et al., Blood, 95 (12):3900-8, 2000). For this reason, they show low response to rituximab the main therapeutic mechanism of which is CDC (complement-dependent cytotoxicity). In order to confirm the possibility of improving the therapeutic effect of rituximab for Burkitt lymphoma, which is known as malignant B cell lymphoma, the apoptotic ability of co-administration with EP-10H in Burkitt lymphoma BJAB cells was investigated. For investigation of the effect of co-administration, 5×10^5 BJAB cells were cultured for 1 hour under the condition of 37° C. and 5% CO2 after treating with 100 μL of RPMI supplemented with 50% complement human serum (Sigma, USA), containing 50 μg/mL of 4-1H or EP-10H and 20 μg/mL of rituximab. Then, CDC was observed by identifying apoptotic cells with Attune N×T (ThermoFisher Scientific, USA), which is a FACS analysis equipment, using an FITC annexin V apoptosis detection kit with 7-AAD (BioLegend, USA) (FIG. 4). […] It was confirmed that this effect was more significant for EP-10H having higher affinity for CD55.
The apoptotic ability of the CD20×CD55 bispecific antibody was investigated by the method of Example 10-1. […]

Ramos cells = experiment: CDC / apoptosis by FACS in Ramos cells with complement human serum; format: cell-based; details: rituximab alone, method of Example 10-1
Ramos-RR cells = experiment: CDC / apoptosis by FACS in rituximab-resistant Ramos-RR cells with complement human serum; format: cell-based; details: method of Example 10-1
[2] = target: T1, recombinant human CD55 (R&D Systems 2009-CD/CF) (human, UniProt P08174 35-353); experiment: indirect ELISA, recombinant human CD55 coated
T1 construct: Bought recombinant protein coated on ELISA plates; also called decay-accelerating factor; DAF
T1 sequence (looked up): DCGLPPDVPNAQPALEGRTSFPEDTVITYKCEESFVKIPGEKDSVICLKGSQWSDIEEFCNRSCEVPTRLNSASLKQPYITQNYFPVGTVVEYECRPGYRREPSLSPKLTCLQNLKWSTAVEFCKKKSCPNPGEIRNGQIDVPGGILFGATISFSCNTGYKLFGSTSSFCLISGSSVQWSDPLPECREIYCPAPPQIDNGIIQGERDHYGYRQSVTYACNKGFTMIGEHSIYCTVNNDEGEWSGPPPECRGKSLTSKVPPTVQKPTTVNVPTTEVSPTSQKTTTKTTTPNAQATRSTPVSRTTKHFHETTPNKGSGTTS

[3] = target: T2, CD55 on cells (BJAB, Ramos, Ramos-RR, K562, K562-IR, PC9, PC9-GR) (UniProt P08174 35-353, limits assumed); experiment: flow cytometry, Ramos and Ramos-RR cells stained with 10 µg/mL EP-10H and anti-human IgG Alexa Fluor 488
T2 construct: whole, on cells; Endogenous CD55 on cell lines used for flow cytometry and cell death assays; also called CD55 receptor
T2 sequence (looked up): T1 sequence (looked up)
Method: 5×10⁵ Ramos or Ramos-RR cells were suspended in PBS containing or not containing 10 μg/mL of the EP-10H monoclonal antibody and cultured at 4° C. for 1 hour. The culture was centrifuged at 4,000 rpm for 5 minutes and centrifuged again at 4,000 rpm for 5 minutes after washing with 100 μL of PBS. After treating the cells with goat anti-human IgG antibody diluted to 1:100 using PBS and Alexa Fluor 488 (ThermoFisher Scientific, USA), they were incubated at 4° C. for 30 minutes in the shade. The fluorescence-stained cells were washed with PBS, suspended in 400 μL of PBS and then analyzed using Attune N×T (ThermoFisher Scientific, USA), which is a FACS analysis equipment.

[4] = target: T1, recombinant human CD55 (R&D Systems …); experiment: phage ELISA, recombinant human CD55 coated, anti-M13-HRP; 4-1H phage clone as control
Method: 192 clones screened from the products of the third and fourth biopanning were incubated overnight at 37° C. on a 96-deep well plate after adding 100 μg/mL carbenicillin, 70 μg/mL kanamycin and VCSM13 helper phage to induce the proliferation of phages wherein the antibody was expressed. After centrifuging the culture, the supernatant containing the phage was incubated at 37° C. for 2 hours on an ELISA plate coated with recombinant human CD55 (R&D Systems 2009-CD/CF, USA). Then, the antibody binding to CD55 was identified by ELISA using HRP-conjugated anti-M13 antibody (Merck, USA) as a secondary antibody.

recombinant human CD55 = target: T3, recombinant human CD55 (Homo sapiens, UniProt P08174); experiment: Indirect ELISA, affinity for CD55; format: binding; details: full-length antibody 0.0001-10 nM on CD55 coated at 1 μg/mL
T3 construct: purchased R&D Systems 2009-CD/CF
T3 sequence (P08174 35-353): T1 sequence (looked up)
Method: (§2) The binding ability of the G4-1H monoclonal antibody prepared in Example 2 for CD55 was investigated by indirect ELISA. For the indirect ELISA, recombinant human CD55 (R&D Systems, USA) diluted to 1 μg/mL in 50 μL of PBS was added to a 96-well immunoplate (Corning, USA) and then adsorbed by keeping at 4° C. overnight. After incubation for 1 hour at room temperature in a buffer containing 3% bovine serum albumin (Millipore, USA), followed by washing with a buffer containing 0.5% Tween 20 (Amresco, USA) three times, 50 μL of the serially diluted antibody (0.0001, 0.0003, 0.001, 0.003, 0.01, 0.03, 0.1, 0.3, 1, 3 and 10 nM) was treated per well. After incubation at room temperature for 2 hours for antibody-antigen binding, the antibody-antigen complex was washed three times with a buffer containing 0.5% Tween 20 (Amresco, USA). After treating with 50 μL of anti-human immunoglobulin Fc-HRP antibody (Jackson Immunoresearch, USA) diluted to 1:3,000 per well, followed by incubation at room temperature for 1 hour and washing three times with a buffer containing 0.5% Tween 20 (Amresco, USA), color development was conducted for 10 minutes by adding 50 μL of 3,3′,5,5′-tetramethylbenzidine (TMB) (ThermoFisher Scientific, USA).
The affinity of the antibodies screened in Example 6 for CD55 was investigated by indirect ELISA. The indirect ELISA was conducted in the same manner as in Example 3.
The affinity of the antibodies prepared in Example 8 for CD55 was investigated by indirect ELISA. The indirect ELISA was conducted in the same manner as in Example 3. […]

PC9-GR cells = experiment: Apoptosis by FACS in gefitinib-resistant PC9-GR cells; format: cell-based; details: 5 μg/mL gefitinib + 5 μg/mL anti-CD55 antibody, 24 hours
Method: 24 hours later, after treating with 5 μg/mL gefitinib or 5 μg/mL gefitinib and 5 μg/mL 4-1H or EP-10H diluted with 500 μL of RPMI, the cells were cultured again for 24 hours under the condition of 37° C. and 5% CO2. Then, apoptotic cells were analyzed with the FACS analysis equipment Attune N×T using 7-AAD and an FITC annexin V apoptosis detection kit (FIG. 7b).

[5] = target: T1, recombinant human CD55 (R&D Systems …); experiment: indirect ELISA, recombinant human CD55 coated, anti-human Fc-HRP
Method: as §2

Q: For Cc1ccc(NC(=O)c2ccc(CN3CCN(C)CC3)cc2)cc1Nc1nccc(-c2cccnc2)n1 [Imatinib, imatinib, reference compound], which induction of apoptosis (K562 cells) is on record?
A: induced apoptosis

Q: And the induction of apoptosis (K562-IR cells; 2 μM imatinib alone)?
A: did not show the effect

Q: How did the “response to rituximab (CDC, apoptotic cells)” value ([1]; 20 μg/mL rituximab alone) turn out when rituximab [reference compound] was run?
A: low response

Q: And the induction of apoptosis (Ramos cells)?
A: induced apoptosis

Q: What about the induction of apoptosis (Ramos-RR cells; rituximab alone) of the same molecule?
A: the induction of apoptosis in the Ramos-RR cells was lower than in the Ramos cells

B1: EP-10H (antibody, V domains shown)
VH: EVQLVESGGGLVQPGGSLRLSCAASGFTFSDRGMAWVRQAPGKGLEWVSGISSSGRYTYYAPAVKGRATISRDNSKNTLYLQMNSLRAEDTAVYYCAKNAVAGGWHAAYIDAWGQGTTVTVSS
VL: SYELTQPPSVSVSPGQTASITCSGGGGSYGWYQQKPGQSPVTVIYWNDKRPSGIPERFSGSKSGNTATLTISGTQAMDEADYYCGGWDSSTYAIFGGGTKLTVL
notes: Tested as full-length IgG; Differs from G4-1H only at the H100A site (G to V); also called EP-10H monoclonal antibody; EP-10H antibody
Q: Does B1 bind [2]?
A: binds

Q: Does B1 bind [3]?
A: binds

B2: EP-10H scFv clone displayed on phage (scFv, V domains shown)
VH: B1 VH
VL: B1 VL
notes: In the screening ELISA it stood as scFv on phage (pComb3x)
Q: Does B2 bind [4]?
A: binds

B3: EP-10H: anti-CD55 antibody different from G4-1H only at the H100A site (G to V), VL SEQ ID NO 4, VH SEQ ID NO 19 (antibody, V domains shown)
VH: B1 VH
VL: B1 VL
modifications: EP-1E_VH; G4-1H_VL
Q: With B3 as the molecule, how does the “affinity for CD55 (indirect ELISA, absorbance at 450 nm)” value (shortened to “affinity for CD55”) (recombinant human CD55) read?
A: comparable affinity

Q: And the “apoptosis on co-administration with gefitinib” value (PC9-GR cells)?
A: apoptosis was induced; also recorded: higher apoptotic effect than the co-administration of 4-1H and gefitinib

Q: What about the “effect of rituximab (CDC, apoptotic cells) on co-administration with anti-CD55 antibody” value ([1]; 50 μg/mL anti-CD55 antibody + 20 μg/mL rituximab) of the same molecule?
A: the effect was increased; also recorded: The increase was higher for a combination of rituximab and EP-10H than a combination of rituximab and 4-1H

Q: What about the “apoptosis by rituximab on co-administration with anti-CD55 antibody” value (Ramos-RR cells; anti-CD55 antibody + rituximab) of the same molecule?
A: increased apoptosis; also recorded: more significantly increased the apoptosis by rituximab as compared to the co-administration with 4-1H

Q: And the “apoptosis on co-administration with imatinib” value (K562-IR cells; 2 μM imatinib + 10 μg/mL anti-CD55 antibody)?
A: apoptosis was induced; also recorded: higher apoptotic effect than the co-administration of 4-1H and imatinib

B4: 3R-2-1H scFv clone displayed on phage (scFv, V domains shown)
VH: B1 VH with A23V, S25R, A68T
VL: B1 VL
notes: as for B2
Q: Does B4 bind [4]?
A: binds

B5: G4-1H (antibody, V domains shown)
VH: B1 VH with V101G
VL: B1 VL
notes: Tested as complete antibody (full-length IgG); also called humanized 4-1H antibody; G4-1H monoclonal antibody
Q: Does B5 bind [5]?
A: binds

B6: 10H(A) (antibody, V domains shown)
VH: B1 VH with V101A
VL: B1 VL
Q: Which “affinity for CD55” value (recombinant human CD55) does the source give for B6 here?
A: lower affinity than EP-10H

Q: Does B6 bind [2]?
A: binds

B7: 10H(I) (antibody, V domains shown)
VH: B1 VH with V101I
VL: B1 VL
Q: How did the “affinity for CD55” value (recombinant human CD55) turn out when B7 was run?
A: lower affinity than EP-10H

Q: Does B7 bind [2]?
A: binds

B8: EP-1F scFv clone displayed on phage (scFv, V domains shown)
VH: B1 VH with V5A
VL: B1 VL
notes: as for B2
Q: Does B8 bind [4]?
A: binds

B9: EP-1E scFv clone displayed on phage (scFv, V domains shown)
VH: B1 VH
VL: B1 VL with Y32F, D48N
notes: as for B2
Q: Does B9 bind [4]?
A: binds

B10: EP-9B scFv clone displayed on phage (scFv, V domains shown)
VH: B1 VH with A35V, A40S, S85N
VL: B1 VL
notes: as for B2
Q: Does B10 bind [4]?
A: binds

B11: EP-1F (antibody, V domains shown)
VH: B1 VH with V5A
VL: B1 VL
notes: Tested as full-length IgG
Q: Does B11 bind [2]?
A: binds

B12: EP-9B (antibody, V domains shown)
VH: B1 VH with A35V, A40S, S85N
VL: B1 VL
notes: Tested as full-length IgG
Q: Does B12 bind [2]?
A: binds
